Sequences and labels used below:
B1: Allomuricauda taeanensis (Ata) rpoE-associated nuclease-dead Cas12f (other)
chain: MGKSTLKHTRKIQILIDLPTKDEKKEVMDMMYQWRDRCFRAANIIVTHLYVQEMIKDFFYLSEGIKYKLADEKKDEKGILQRSRMNTTYRVVSDRFKGEMPTNILSTLNHGLISSFNKNRVQYWKGERSLPNFKKDMAFPFGLQGISRLVYDEEKKAFCFRLYRVPFKTYLGKDFTDKRMLLERLVKGDVKLCASNIQLNGGKIFWLAVFEIEKEKHSLKPEVIAEASLSLEYPIVVKTGKNRLTIGTKEEFLYRRLAIQAARRRTQVGATYSRSGKGKKRKLKAVDKYHKTESNYVAHRIHVYSRKLIDFCIKHQAGTLILMNQEDKVGIAKEEEFVLRNWSYYELMTKIKYKAEKAGIELIIG
notes: Untagged dCas12f, co-expressed in E. coli with its gRNA from the Ata plasmid in which the FLAG tag sits on RpoE or on HTH; also called Ata dCas12f; AtadCas12f
B2: Allomuricauda taeanensis (Ata) sigma factor E RpoE with N-terminal 3xFLAG tag (other)
chain: MLYSDFELLKIGDTSALDHIHAKYFRSILWIGRQWLNDDFLIESLVQDTFLKLWVNRDKLESPEHIFYFLRFVMKRECISYYRKPKYKFHKKVNSLEDYDNYQDYMVGYDPVNDSENLDEQESTQKSFDHIKSILPLLNADKRHLIELCLKYGFQYKAISKVMGKGIHETSREIKEAIEDIKTIVHKGNELGSNDTMTNEIKFSGELSEEQAKVLKMRCDLKYSFSEIAKELELSEKEVHQEFMKAYKLMKANHQLQLQSA
notes: Expressed in E. coli together with dCas12f, HTH and gRNA; also called FLAG-RpoE; Ata RpoE; not shown: N-terminal 3xFLAG tag

The target of assay [1] is B2. Nature of the assay: summary of the ChIP-seq and ChIP-qPCR data on the Ata system in E. coli. A general note: In qPCR the cycle at which signal appears reflects the starting amount.
In assay [2] the target is B1. Kind of assay: ChIP-seq (anti-FLAG) of N-terminally 3xFLAG-tagged Ata RpoE in E. coli co-expressing Ata dCas12f and gRNAs retargeted to four genomic sites. As for the experimental part:
After conjugating, the antibody-magnetic beads were added to the sonication supernatant and incubated at 4° C. for 12-16 h. Then, the magnetic beads were washed and immunoprecipitated protein bound to crosslinked DNA was eluted. Reverse-crosslinking was performed at 65° C. overnight. Samples were treated with RNase A (Thermo Fisher Scientific) and proteinase K (Thermo Fisher Scientific) and purified using QIAquick spin columns (QIAGEN). ChIP-sequencing libraries were generated using the NEBNext Ultra II DNA Library Prep Kit for Illumina (NEB). Size selection (˜450 bp fragment size) was performed using AMPure XP Beads (Beckman Coulter) and samples were sequenced using the Illumina NextSeq 500 platform in paired-end mode with 75 cycles per end. Sequencing reads were mapped to the E. coli K-12 genome (GenBank NC_000913.3) using bowtie2 and normalized using deepTools bamCoverage and visualized in IGV using counts per million (CPM). […]
Re-programmability of gRNAs for RNA-guided DNA-targeting of dCas12f and RpoE To test whether the gRNA and TAM were correctly determined by RIP-seq and ChIP-seq, new guide sequences were cloned for one representative system (here, Ata), targeting 4 different DNA sites tiled across the E. coli K-12 genome. […]

Turning to B1, the binding result in assay [1] is “binds”.
Take B2: in assay [2], the binding result is “binds”.

These data come from US20260152767A1 (TRUSTEES OF COLUMBIA UNIVERSITY IN THE CITY OF NEW YORK, published 2026).
